Test results reported in paper PMC4764128.

Molecular target: Dup A502,Y503 KIT D4D5 fragment (human) (UniProt P10721)
Test: SEC-MALS

## Dup A502,Y503 KIT D4D5 fragment (from UniProt P10721 308-514) (domain or fragment)
  Kd: 730 µM
